These results are taken from patent US8067376B2, “Pharmaceutical compositions for transdermal delivery” (Forhumantech Co., Ltd., priority 2004, dated 2011).

The subject of data set [1] is HeCaT cell line. In words: Cell proliferation-inhibitory effect by WST-1 assay. Type of data set: cell-based. Particulars: 0.2, 1.5, 4.4, 13.3 and 40 μM, after 2 days. The text has this:
In this Example, the cell proliferation-inhibitory effect of PTD-MTX was observed by WST-1 assay (Roche Biochemical) in vitro.
To analyze the cell proliferation-inhibitory effect of PTD-MTX, a HeCaT cell line (obtained from the Department of Dermatology, College of Medicine, Chungnam National University, Korea) was used to analyze cell death. For this purpose, […] were inoculated into DMEM medium (10% FCS, antibiotics (GIBCO)) on a 96-well plate and cultured overnight. To the culture medium, MTX alone, PTD-MTX and PTD-ACA-MTX conjugates prepared in Example 1 were added with concentrations of 0.2, 1.5, 4.4, 13.3 and 40 μM respectively. After 2 days, the inhibition of proliferation of the cells was analyzed by the WST-1 assay.
In the WST-1 assay, tetrazolium salt is present in the respiratory chain of mitochondria and cleaved into a formazan dye by succinate-tetrazolium-reductase having activity only for viable cells, and if the number of viable cells increases, the entire activity of mitochondria dehydrogenase in a sample will increase. Since this increase in enzymatic activity induces an increase in the production of formazan dye, the formazan dye will show a linear correlation with the number of metabolically active cells in medium. The absorbance of the dye solution was measured with an ELISA reader to quantify the formazan dye produced by the metabolically active cells so as to observe cell proliferation ability and cell viability.
On the technique in general: Formazan colour is commonly taken as a measure of viable cells.

Data set [2] can be described thus: Prior enzyme test of PTD-MTX conjugate versus MTX alone. Type of data set: biochemical. The conditions noted are these: prior enzyme test results.
Data set [3] has as its system Sprague Dawley rats. The data set is described as follows: Toxicity test by single subcutaneous administration to rats. The class given is in vivo, rat. Here is the method:
Toxicity by the single subcutaneous administration of PTD-ACA-MTX prepared in Example 1 was examined. Male and female Sprague Dawley rats (Samtako) were divided into an excipient control group administered with sterilized water for injection, and test groups administered with the inventive conjugate in amounts of 5, 50 and 500 mg/kg. Each of the animal groups consisted of 10 animals (five males and five females) and observed for mortality for 2 weeks, general symptoms, bodyweight change, and autopsy findings. All the test methods were performed according to toxicity test standards provided by the Korea Food and Drug Administration, and the test results are as follows.

For data set [4], the system named is New Zealand White rabbits. The data set is described as follows: Skin irritation test in rabbits. Type of data set: in vivo, rabbit. The conditions noted are these: healthy and scratch skin. As to the method:
The skin irritability of the inventive conjugate was examined. The inventive conjugate was applied to the healthy skin and scratch skin of New Zealand White rabbits, which were then evaluated comparatively with the healthy skin and scratch skin to which the inventive conjugate had not been applied.

For data set [5], the system named is DBA/1J mice. The data set is described as follows: Arthritis animal model (rheumatoid arthritis induced by II-type collagen). Type of data set: in vivo, mouse. Here is the method: For in vivo verification of the pharmacological effects of the PTD-ACA-MTX conjugate, DBA/1J mice (obtained from Samtako) were injected with e II-type collagen (obtained from Sigma) to induce rheumatoid arthritis. The mice were divided into a group for intraperitoneal (I.P.) injection of the PTD-ACA-MTX conjugate prepared in Example 1, a group for transdermal administration of the PTD-ACA-MTX conjugate prepared in Example 1, and a group for intraperitoneal (I.P.) injection of MTX alone. For the groups for intraperitoneal (I.P.) injection, MTX was injected in a dosage of 0.3 mg/kg for 4 weeks, and for the group for transdermal administration, a cream-type composition consisting of 5 wt %, based on the weight of the composition, of ethanol, 15 wt % of liquid paraffin, 40 wt % of Vaseline, 0.1 wt % of the PTD-ACA-MTX conjugate, 10 wt % of glycerin and 30 wt % of polyethylene glycol was prepared and then applied on rheumatoid arthritis-induced sites four times weekly. After treatment with the drugs, the arthritis index was monitored one time each week, and after 4 weeks, the animals were sacrificed and the IL-4, IL-6, TNF-α and arthritis factor levels in the blood were measured (see FIGS. 7, 8 and 9; results obtained using PTD of SEQ ID NO: 2 are not shown in the drawings). In FIGS. 7, 8 and 9, N: normal mice; CT: mice having rheumatoid arthritis induced by injection of collagen; M1: the group injected intraperitoneally with MTX alone; M2: the group injected intraperitoneally with PTD-ACA-MTX; and M3: the group for which the ointment preparation containing the PTD-ACA-MTX conjugate was administered transdermally.

Data set [6] concerns beagle dogs. In words: Toxicity test by single subcutaneous administration to beagle dogs. The class given is in vivo, dog. Here is the method: Toxicity caused by single subcutaneous administration of the inventive conjugate was examined. Male and female beagle dogs were administered subcutaneously with the inventive conjugate in each of amounts of 4, 20 and 100 mg/kg. Each of the animal groups consisted of four animals (2 males and 2 females) and observed for mortality for 2 weeks, general symptoms, bodyweight change, and autopsy findings. All the test methods were performed according to toxicity test standards provided by the Korea Food and Drug Administration, and the test results are as follows.

The mark [7] stands for this setting: 500 mg/kg, male and female animals.

Entries after “also recorded” stand apart in the source; their conditions may differ. Ends that are not written are not given here.

Regarding “PTD-MTX (YARVRRRGPRR-NH2; not fully specified (N-terminus); also: methotrexate conjugate)”, the “cell proliferation-inhibitory effect (rank order)” value in data set [1] is reported as “MTX alone <PTD-MTX<PTD-ACA-MTX”. Besides, the “effect in enzyme test compared to MTX alone” value in data set [2] is listed as “low effects compared to MTX alone”.
Take “PTD-ACA-MTX (YARVRRRGPRR; also: aminocaproic acid linker, methotrexate conjugate, position not given here)”: the entries for the “cell proliferation-inhibitory effect (rank order)” value in data set [1] and in data set [1] (listed as MTX-ACA-PTD conjugate) were “MTX alone <PTD-MTX<PTD-ACA-MTX” and “highest inhibitory effect”, respectively. Besides, the autopsy findings result in data set [3] (500 mg/kg, female animals) is “splenomegaly was observed”; in data set [6] (4, 20 and 100 mg/kg single s.c.), “abnormal findings were not observed”. Further, the “autopsy findings at the administration site” value in data set [3] (setting [7]) is “red fluid retention and incrustation”. Further, the general symptoms entry in data set [3] (setting [7]) is “congestion was observed starting from one day after the administration; also recorded: incrustation was observed starting from 2 days after the administration”; in data set [3] (500 mg/kg, male animals), “systemic edema was observed”; in data set [3] (4 days to 6 days after administration, group not clearly stated (500 mg/kg context)), “Diarrhea and soft feces were sporadically observed”; in data set [6] (100 mg/kg, males, anorexia 2 to 4 days, diarrhea 3 days after administration, listed as inventive conjugate) it was “anorexia was observed; also recorded: diarrhea was observed”; in data set [6] (100 mg/kg, one male and female, starting from 1 hour after administration), “reduction in spontaneous motility was observed”; in data set [6] (groups with more than 20 mg/kg, males and females, 1 hour to 6 hours after administration) it was “eyelid edema was observed”. Further, the general symptoms entry in data set [6] (one male of 20 mg/kg group and one female of 100 mg/kg group) was “edema and a reduction in spontaneous motility were continued up to 2 days after administration”. The bodyweight change entry in data set [3] (500 mg/kg, male animals, 3, 7 and 14 days after administration) is “inhibition of an increase in bodyweight”; in data set [6] (100 mg/kg, male and female animals, 3 days after administration) it was “temporary inhibition of an increase in bodyweight”. For the same compound, the “mortality (animals killed by the test substance)” value in data set [3] (5, 50 and 500 mg/kg single s.c., 2 weeks) was “not observed”; in data set [6] (4, 20 and 100 mg/kg single s.c., 2 weeks), “No animal killed by the test substance was observed”. For the same compound, the “minimum lethal dose (MLD)” value in data set [3] (single subcutaneous administration, rats) is given as “more than 500 mg/kg”. Also, the skin irritability classification entry in data set [4] is recorded as “non-irritating substance”. The skin irritation index result in data set [4] is listed as “zero”. Moreover, the “inflammatory cells which have penetrated inflammatory sites (tissue photographs)” value in data set [5] (after treatment, H&E and M-T staining) is “greatly decreased”. For the same compound, in data set [5] (blood, after 4 weeks of treatment), the “amount of inflammation-mediating cytokine TNF-α” value is “greatly decreased”. Moreover, the “pharmacological effect in arthritis animal model” value in data set [5] (group M3, transdermal ointment, compared with M2 (I.P. MTX-ACA-PTD) and M1 (I.P. MTX alone)) was “substantially the same effect”. Further, in data set [6] (single subcutaneous administration, beagle dogs, both males and females), the minimum lethal dose result is given as “over 100 mg/kg”.
With `CN(Cc1cnc2nc(N)nc(N)c2n1)c1ccc(C(=O)N[C@@H](CCC(=O)O)C(=O)O)cc1` [MTX alone, methotrexate, reference compound], in data set [1], the “cell proliferation-inhibitory effect (rank order)” value is “followed by the MTX-PTD conjugate and the MTX alone in that order; also recorded: MTX alone <PTD-MTX<PTD-ACA-MTX”.
